Experimental data from patent publication US20230295310A1 (ABCELLERA BIOLOGICS, published 2023).

molecular target: human CD3 (human, UniProt P07766 23-207; P04234 22-171; P09693 23-182); assay: cell-based or functional assay
Sequence (P07766 23-207, chain 1 of 3): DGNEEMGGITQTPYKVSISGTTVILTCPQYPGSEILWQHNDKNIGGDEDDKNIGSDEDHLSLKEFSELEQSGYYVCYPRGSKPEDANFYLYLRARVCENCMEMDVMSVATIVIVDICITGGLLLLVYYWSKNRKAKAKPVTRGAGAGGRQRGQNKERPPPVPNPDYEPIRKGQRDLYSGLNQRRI
Sequence (P04234 22-171, chain 2 of 3): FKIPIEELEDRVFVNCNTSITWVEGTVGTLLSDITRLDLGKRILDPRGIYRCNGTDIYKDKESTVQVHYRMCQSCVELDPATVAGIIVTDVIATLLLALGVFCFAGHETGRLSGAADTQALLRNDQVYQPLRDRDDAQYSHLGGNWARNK
Sequence (P09693 23-182, chain 3 of 3): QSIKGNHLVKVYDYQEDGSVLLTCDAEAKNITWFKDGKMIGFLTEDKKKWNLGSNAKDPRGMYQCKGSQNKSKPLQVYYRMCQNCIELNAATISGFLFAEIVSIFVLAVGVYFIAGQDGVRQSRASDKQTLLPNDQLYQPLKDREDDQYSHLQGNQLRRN

| CD4 EC50 (nM); CD69/CD25 on human T cells, plate-coated antibody [nM] | CD8 EC50 (nM); CD69/CD25 on human T cells, plate-coated antibody [nM] | Binder |
| --- | --- | --- |
| 8.54 | 8.91 | mAb 55 (antibody, V domains shown) VH: QVQLEQSGAEVKKPGASVKVSCKTSGYIFANYDINWVRQATGQGLEWMGWMNPKSGKAGYAQKFQGRVTMTSNTPINTAYMELSSLRSEDTAVYYCAREGHYDFWRGFYSFDYWGQGILVTVSS VL: DIQMTQSPSSLSASVGDRVTITCRASQGIRNDLGWYQQKPGKAPKRLIYTASSLQSGVPSRFSGSGSGTEFTLTISSLQPEDFATYFCLQYNTYPYTFGQGTKLEIK |
| 24.8 | 23 | mAb 73 (antibody, V domains shown) VH: EVELVESGGGLVQPGRSLRLSCAASGFTFDDKVMHWVRQAPGKGLEWVSCINWNSGHIGYADSVKGRFTISRDNARTSLYLQMNSLRPEDTALYYCVREGNYDFWSGYYRGFFDLWGRGTLVTVSS VL: DIQMTQSPSSLSASVGDRVTITCRASQGIRNDLGWYQQKPGKAPKRLIYAASSLQGGVPSRFSGSGSGTEFTLTISSLQPEDFATYYCLQHTSYPFTFGQGTKLEIK |
| 19.3 | 19.2 | mAb 71 (antibody, V domains shown) VH: QVQLVQSGAEVRKPGASVKVSCKASGYTFTKYDVNWVRQAPGQGLEWMGWMNSNNGNIGYAQKFQGRVTMTRKTSISTAYMELSSLRSEDTAVYYCAREGHYDFWRGFYNFDYWGQGTLVTVSS VL: DIQMTQSPSSLSASVGDRVTITCRASQDIKNDLGWYQQKPGKAPKRLIYAASSLQSGVPSRFSGSGSGTEFTLTISSLQPEDFATYYCLQHNFYPITFGQGTRLEIK |
| 22 | 21.3 | mAb 67 (antibody, V domains shown) VH: EVQLVESGGDLVQPGRSLRLSCAASGFTFDDCVIHWVRQAPGKGLEWVSGITWNSGRIGYADSVKGRFTISRDNAKNSLYLQMNSLRVEDTALYYCAKEGNYDFWSTYYRGYFDLWGRGTLVTVSS VL: DIQMTQSPSSLSASVGDRVTITCRASQGIRNDLGWYQQKPGIAPKRLIYAASSLQGGVPLRFSGSGSGTEFTLTISSLQPEDFATYYCLQHNSYPYTFGQGTKLEIK |
| 24.6 | 25.6 | mAb 43 (antibody, V domains shown) VH: QAQLVQSGSELKKPGASVKVSCKASGYTFTKHSMNWVRQAPGQGLEWMGWINTNTGNPMYAQGFTGRFVFSLDTSVTTAYLQISSLKAEDTAVYYCAREGDYDFWSGFFNFDYWGQGTLVTVSS VL: DIQMTQSPSSLSASVGDRVTITCRASQGIRNDLGWYQQKPGKAPKRLIYAASSLQSGVPSRFSGSGSGAEFTLTISSLQPEDFATYYCLQHNSYPRTFGQGTKVEIK |
| 20.9 | 19.6 | mAb 74 (antibody, V domains shown) VH: EVQLVESGGGLVQPGRSLRLSCAASGFTFADYVMHWVRQAPGKGLEWVSGINWNNARIGYVGSVKGRFTISRDNAKNSLYLQMTSLRVEDTALYHCVREGNFDFWSAYYRGFLDLWGRGTLVTVSS VL: DIQMTQSPSSLSASVGDRVTITCRASQGIRSDLGWYQQKPGKAPKRLIYGASSLQGGVPSRFSGSGSGTEFTLTISSLQPEDFATYYCLQHNSYPYTFGQGTKLEIK |
| 13 | 13.2 | mAb 66 (antibody, V domains shown) VH: QVQLVQSGAEVKKPGASVKVSCKASGYTVTGYYMHWVRQAPGQGLEWMGWINPNSGGTNFAQNFQGRVTMTRDTSISTFYMDLSRLRSDDTAVYYCARGGAPVSYWFFDLWGRGTLVTVSS VL: DIQMTQSPSSLSASVGDRVTITCRASQSISRYLNWYQQKPGKAPKVLIYNTSSLKSGVPSRFSGSGSGTDFTLTISSLQPEDFATLYCQQSHSTPFTFGPGTKVDIK |
| 9.43 | 10.3 | mAb 85 (antibody, V domains shown) VH: QVQLVQSGAEVKKPGASVKVSCKASGYTVTGYYMHWVRQAPGQGLEWMGWINPNSGGTNFAQNFQGRVTMTRDTSISTFYMDLNRLRSDDTAVYYCARGGAPVSYWFFDLWGRGTLVTVSS VL: DIQMTQSPSSLSASVGDRVTITCRASQSISRYLNWYQQKPGKAPKVLIYNTSSLKSGVPSRFSGSGSGTDFTLTISSLQPEDFGTFYCQQSHSTPFTFGPGTKVDIK |
| 10.4 | 11 | mAb 79 (antibody, V domains shown) VH: QVQLVQSGAEVKKPGASVKVSCKASGYIVTGYYMHWVRQAPGHGLEWMGWINPNSGGTNFAQNFQGRVTMTRDTSISTFYMDLNRLTSDDTAVYYCARGGAPVSYWFFDLWGRGTLVTVSS VL: DIQMTQSPSSLSASVGDRVTITCRASQNINSYLNWYHQKPGKAPKVLIYNTSTLKSGVPSRFSGSGSGTYFTLTISSLQPEDFATFYCQQSHSTPFTFGPGTKVDIK |
| 6.38 | 6.37 | mAb 176 (antibody, V domains shown) VH: EVELVESGGGLVQPGRSLRLSCAASGFKFDDYTMHWVRLPPGKGLEWVSGISWNSGTIDYGDSVKGRFTISRDNAKNSLYLQMNSLRVEDTALYYCAKDTSGYGHYFYYYMDVWGKGTTVTVSS VL: DIQMTQSPSSLSASIGDRVSITCRTSQIINNYLNWYQQKPGKAPKVLIYSASSLQSGVPSRFSGSGSGTDFTLTINSLQPEDFATYYCQQSYNFPITFGQGTRLELK |
| 14.3 | 14.2 | mAb 177 (antibody, V domains shown) VH: EVQLVESGGGLVQPGMSLRLSCAASGFTFDDYTMHWVRQSPGKGLEWVAGISWNSGTIGYGDSMKGRFTISRDNAKNSLDLQMNSLRVEDTALYYCAKDTSGYGHYYYYFMDVWGKGTTVTVSS VL: DIQMTQSPSSLSASIGDRVSITCRTSQIINNYLNWYQQKPGKAPKLLIYSASSLQSGVPSRFSGSGSGTDFTLTLSSLQPEDFATYFCQQSYNFPITFGQGTRLELK |
| 13.3 | 15.2 | mAb 54 (antibody, V domains shown) VH: EVQLEESGGGLVQPGGSLRLSCAASGFTFSRYSMNWVRQAPGKGLEWFSYISSSSRTIYYADSVKGRFTMSRDNAKNSLYLQMNSLRDEDTAVYFCARGDYYDSEGMDVWGKGTTVTVSS VL: DIQMTQSPSTLSASVGDRVTITCRASQTITTWLAWYQQKPGKAPKLLIYKASTLESGVPSRFSGSGSGTEFTLTISSLQPDDFATYHCQQYKTFSYTFGQGTKLDIK |
| 12.6 | 12.6 | mAb 178 (antibody, V domains shown) VH: EVQLVESGGGLVQPGRSLRLSCAASGFTFDDYTMHWVRQAPGKGLEWVSDISWNSGTIGYADSVKGRFTISRDNAKNSLYLQMNSLRAEDTALYYCVKDSSGYGHYYKYYMDVWGKGTTVTVSS VL: DIQMTQSPSSLSASVGDRVTITCRASQSISNYLNWYQQKAGKVPKVLIYGSSSLQSGVPSRFSGSGSGTDFTLTISSLQPEDFASYYCQQTYSSPLTFGGGTKVDFK |
| 6.54 | 6.57 | mAb 180 (antibody, V domains shown) VH: EVNLVESGGGLVQPGRSLRLSCAASGFTFDDYTMHWVRQVPGKGLEWVSNISWNSGSLGYADSVKGRFTISRDNAKDSLYLQMNSLRVEDTALYYCAKDSSGYGHYNSYYMDVWGKGTTVTVSS VL: DIQMTQSPSSLSASVGDRVTITCRASQSIRNYLNWYQQKPGKAPKVLIYSASSLQSGVPSRFSGSGSGTDFTLTISSLQPEDFASFYCQQTYSTPITFGQGTRLEIK |
| 10.4 | 9.87 | mAb 179 (antibody, V domains shown) VH: EVQLVESGGGLVQPGRSLRLSCAASGFTFDDYTMHWVRQTPGKGLEWVSDISWNSGSIGYADSVKGRFTISRDNAKNTLYLQMNSLRAEDTALYYCVKDSSGYGHYLYYYMDVWGKGTTVTVSS VL: DIQMTQSPSSLSASVGDRVTITCRASQSIRNYLNWYQQSPGRAPKLLIFSASSLQSGVPSRFSGSGSGTDFTLTISSLQPEDFVTYYCQQRYSTPITFGQGTRLEIK |
| 12.5 | 12.6 | mAb 68 (antibody, V domains shown) VH: EVQLVDSGGGLVQPGGSLRLSCSGSGFTFSSYWMSWVRQAPGKGLEWVANIKQDGSQKYYVDSVKGRFTISRDNVKNSLYLQMNSLRVEDTAVYYCARDESSSWYWYFDLWGRGTLVTVSS VL: DIQMTQSPSTLSASVGDRVTLTCRASQNIVKWLAWYQQKPGKAPKLLIYKASSLESGVPSWFSGSGSGTEFTLTINSLQPDDFATYYCQQYYTYSRTFGQGTKVEIK |
| 12.9 | 13.1 | mAb 77 (antibody, V domains shown) VH: EVQLVESGGGLVQPGGSLRLSCAASGFTFSNYWMSWVRQAPGKGLEWVANIKQDGSEKYYVDSVRGRFTISRDNAKKSLYLQMNSLRAEDTAVYYCARDNSNYAYWYFDIWGRGTLVTVSS VL: DIQMTQSPSTLSVSVGDRVTITCRASQSIRKWLAWYQQKPGKAPKLLIFKASSLESGVPSRFSGSGSGTEFTLTISSLQPDDFATYYCQQYDTYSRTFGQGTKVEIK |
| 16.4 | 18.2 | mAb 72 (antibody, V domains shown) VH: EVQLVDSGGGLVQPGGSLRLSCAASGFTFSSYWMSWVRQAPGKGLEWVANIKQDGSEKYYVDSVKGRFTISRDNVKNSLSLEMNSLRAEDTALYYCARDESSSWYWYFDLWGRGTLVTVSS VL: DIQMTQSPSTLSASVGDRVTITCRASQSISKWLAWYQQKPGKAPKLLIYKASSLENGVPSRFSGSGSGTEFTLTISSLQPDDFATYYCQQYSSYSRTFGQGTKVEIK |
| 12.2 | 12.2 | mAb 78 (antibody, V domains shown) VH: EVQLVESGGGLVQPGGSLRLSCAASGFTFSSYWMSWVRQAPGKGLEWVANIKQDGSEKYYVDSVKGRFTISRDNAKNSLYLQMNSLRAEDTAVYYCARDNSPSFYWYFDLWGRGTLVTVSS VL: DIQMTQSPSTLSASVGDRVTITCRASQSLSRWLAWYQQKPGKAPKLLIYKASSLESGVPSRFSGSGSGTEFTLTISSLQPDDFATYYCQQYYTYSRTFGQGTKVEIK |
